From patent US20150368338A1 (Janssen / Centocor, published 2015)
Where a chain is given by its changes, count along the chain named.

T1: IFN-αF (human, UniProt P01568 24-189)
T1 construct: Recombinant, HEK293; also called IFN-α21
T1 chain: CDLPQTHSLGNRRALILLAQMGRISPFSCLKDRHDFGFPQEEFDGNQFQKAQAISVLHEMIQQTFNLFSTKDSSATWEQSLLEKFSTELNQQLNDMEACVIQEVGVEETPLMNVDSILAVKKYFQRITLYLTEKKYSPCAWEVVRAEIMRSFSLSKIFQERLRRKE

B1: IFWM3370 (antibody, IgG1, V domains shown)
VH: EVQLVQSGAEVKKPGESLKISCKGSGYSFTSYWIGWVRQMPGKGLEWMGIIDPSDSDTAYSPSFQGQVTISADKSISTAYLQWSSLKASDTAMYYCARHPGLNWAPDFDYWGQGTLVTVSS
VL: DIQMTQSPSSLSASVGDRVTITCRASQSIDNSYLNWYQQKPGKAPKLLIYGASSLQSGVPSRFSGSGSGTDFTLTISSLQPEDFATYYCQQGWDWPLTFGQGTKVEIK
notes: mAb; IgG1/kappa said of the parent and of selected mAbs; also called IFWB3105
B2: IFWM3377 (antibody, IgG1, V domains shown)
VH: B1 VH
VL: B1 VL with D30R, S32T, Y33N, Y50H, G51W, W93Y, W95T, L97F
notes: mAb; IgG1/kappa said of the parent and of selected mAbs; also called IFWB3112
B3: IFWM3409 (antibody, IgG1, V domains shown)
VH: B1 VH with A59R, N103A
VL: B1 VL
notes: mAb; IgG1/kappa said of the parent and of selected mAbs; also called IFWB3144
B4: IFWM3372 (antibody, IgG1, V domains shown)
VH: B1 VH
VL: B1 VL with S32N, Y33N, G51A, W93Y
notes: mAb; IgG1/kappa said of the parent and of selected mAbs; also called IFWB3107
B5: IFWM3411 (antibody, IgG1, V domains shown)
VH: B1 VH with A59R, N103A
VL: B1 VL with S32N, Y33N, G51A, W93Y
notes: mAb; IgG1/kappa said of the parent and of selected mAbs; also called IFWB3146
B6: IFWM3378 (antibody, IgG1, V domains shown)
VH: B1 VH
VL: B1 VL with D30A, S32N, Y33D, Y50H, G51W, G92D, W93Y
notes: mAb; IgG1/kappa said of the parent and of selected mAbs; also called IFWB3113
B7: IFWM3371 (antibody, IgG1, V domains shown)
VH: B1 VH
VL: B1 VL with D30A, S32T, Y33N, Y50H, G51W, G92W, W93Y, W95N
notes: mAb; IgG1/kappa said of the parent and of selected mAbs; also called IFWB3106
B8: IFWM3375 (antibody, IgG1, V domains shown)
VH: B1 VH
VL: B1 VL with D30R, S32N, G51A, W93Y, W95T
notes: mAb; IgG1/kappa said of the parent and of selected mAbs; also called IFWB3110
B9: IFWM3414 (antibody, IgG1, V domains shown)
VH: B1 VH with A59R, N103A
VL: B1 VL with D30R, S32N, G51A, W93Y, W95T
notes: mAb; IgG1/kappa said of the parent and of selected mAbs; also called IFWB3149
B10: IFWM3376 (antibody, IgG1, V domains shown)
VH: B1 VH
VL: B1 VL with D30S, Y33N, Y50H, G51W, G92W, W93Y, W95H
notes: mAb; IgG1/kappa said of the parent and of selected mAbs; also called IFWB3111
B11: IFWM3407 (antibody, IgG1, V domains shown)
VH: B1 VH with A59R, N103A
VL: B1 VL with D30R, S32N, Y33N, Y50H, G51W, W93Y, W95T, L97F
notes: mAb; IgG1/kappa said of the parent and of selected mAbs; also called IFWB3142

Target: T2, IFN-αG (human, UniProt P01569 24-189)
T2 construct: Recombinant, HEK293; also called IFN-α5
Experiment: ProteOn SPR, cell supernatant;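 note: each binding measurement used just a single antigen concentration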

Kd	Binder
0.021 nM	B1
0.038 nM	B2
0.005 nM	B3
0.103 nM	B4
0.035 nM	B5
0.15 nM	B6
0.05 nM	B7
0.035 nM	B8
0.033 nM	B9
0.048 nM	B10
0.027 nM	B11

Target: T3, human IFN-ω (human, UniProt P05000 24-195)
T3 construct: Recombinant, HEK293; also called interferon omega
Experiment: ProteOn SPR, cell supernatant;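 note: each binding measurement used just a single antigen concentration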

Kd	Binder
0.01 nM	B1
0.027 nM	B2
0.014 nM	B3
0.049 nM	B4
0.028 nM	B5
0.075 nM	B6
0.018 nM	B7
0.019 nM	B8
0.058 nM	B9
0.02 nM	B10
0.017 nM	B11

Target: T4, IFN-αWA (human, UniProt P05015 24-189)
T4 construct: Recombinant, HEK293; also called IFN-α16
Experiment: ProteOn SPR, cell supernatant;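 note: each binding measurement used just a single antigen concentration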

Kd	Binder
0.041 nM	B1
0.12 nM	B2
0.025 nM	B3
0.272 nM	B4
0.087 nM	B5
0.248 nM	B6
0.064 nM	B7
0.031 nM	B8
0.07 nM	B9
0.062 nM	B10
0.06 nM	B11

Target: T5, IFN-αJ1 (human, UniProt P01567 24-189)
T5 construct: Recombinant, HEK293; also called IFN-α7
Experiment: ProteOn SPR, cell supernatant;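 note: each binding measurement used just a single antigen concentration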

Kd	Binder
0.225 nM	B1
0.192 nM	B2
0.041 nM	B3
0.69 nM	B4
0.151 nM	B5
0.496 nM	B6
0.125 nM	B7
0.045 nM	B8
0.174 nM	B9
0.14 nM	B10
0.058 nM	B11

Target: T1, IFN-αF
Experiment: ProteOn SPR, cell supernatant;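 note: each binding measurement used just a single antigen concentration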

Kd	Binder
0.039 nM	B1
0.051 nM	B2
0.009 nM	B3
0.116 nM	B4
0.037 nM	B5
0.168 nM	B6
0.05 nM	B7
0.023 nM	B8
0.101 nM	B9
0.039 nM	B10
0.033 nM	B11

Target: T6, IFN-α4a (human, UniProt P05014 24-189)
T6 construct: Recombinant, HEK293; also called IFN-αM1
Experiment: ProteOn SPR, cell supernatant;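 note: each binding measurement used just a single antigen concentration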

Kd	Binder
0.155 nM	B1
0.193 nM	B2
0.058 nM	B3
0.432 nM	B4
0.101 nM	B5
0.533 nM	B6
0.1 nM	B7
0.067 nM	B8
0.193 nM	B9
0.113 nM	B10
0.128 nM	B11

Target: T7, IFN-αC (human, UniProt P01566 24-189)
T7 construct: Recombinant, HEK293; also called IFN-α10
Experiment: ProteOn SPR, cell supernatant

Kd	Binder
0.039 nM	B1
0.044 nM	B2
0.011 nM	B3
0.094 nM	B4
0.023 nM	B5
0.172 nM	B6
0.043 nM	B7
0.022 nM	B8
0.068 nM	B9
0.034 nM	B10
0.032 nM	B11
